# Measurements reported in US20240226314A1 (Sanofi, published 2024).
# Where two headings read alike, the source gives them in different places.
# T1: His-tagged cynomolgus monkey TfR ectodomain (cyTFRC_89_760; mature protein) (cynomolgus monkey (Macaca fascicularis), UniProt Q5RDH6 89-760 (Pongo abelii entry))
# T1 construct: also called cTfR; cTfR ectodomain
# T1 chain: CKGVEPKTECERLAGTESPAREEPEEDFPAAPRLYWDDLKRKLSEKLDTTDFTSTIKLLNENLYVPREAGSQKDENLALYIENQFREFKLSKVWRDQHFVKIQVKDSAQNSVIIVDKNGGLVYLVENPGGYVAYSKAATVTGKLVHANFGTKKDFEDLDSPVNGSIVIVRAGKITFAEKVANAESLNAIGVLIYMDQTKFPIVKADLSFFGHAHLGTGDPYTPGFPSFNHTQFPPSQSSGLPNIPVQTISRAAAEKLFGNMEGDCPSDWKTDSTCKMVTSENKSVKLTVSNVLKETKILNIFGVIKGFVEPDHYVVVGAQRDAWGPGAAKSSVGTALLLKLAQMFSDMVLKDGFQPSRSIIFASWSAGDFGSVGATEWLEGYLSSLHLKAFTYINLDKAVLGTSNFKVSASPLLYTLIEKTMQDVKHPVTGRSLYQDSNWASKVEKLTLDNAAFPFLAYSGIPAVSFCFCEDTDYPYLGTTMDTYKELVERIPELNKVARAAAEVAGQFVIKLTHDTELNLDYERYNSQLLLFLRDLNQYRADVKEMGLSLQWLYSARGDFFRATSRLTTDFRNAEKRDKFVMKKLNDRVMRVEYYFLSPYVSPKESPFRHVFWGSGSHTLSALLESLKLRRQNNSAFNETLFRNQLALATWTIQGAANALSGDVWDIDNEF
# Key:
# [1] = molecular target: T1, His-tagged cynomolgus monkey TfR …; assay: SPR; KD on cTfR against KD on hTfR
# Method: (§1) Experiments were run on Bruker MASS-2 instrument with HBS-EP+ as running buffer and sample diluent (Cytiva Life Sciences, #BR100826). HCA sensorchips (Bruker, #1862614) were immobilized with anti his antibody (His capture kit, Cytiva Life Sciences, #28995056) following provider's instructions. About 10 000 RU of anti his was obtained. […] Surface was regenerated with one 1 min pulse of 10 mM Glycine-HCl pH1.5.
# [2] = molecular target: T1, His-tagged cynomolgus monkey TfR …; assay: SPR; KD on cTfR against KD on hTfR
# Method: (§2) Binding of the humanized Fab variants to human, cynomolgus and mouse TfR was assessed using SPR at pH 7.4. Experiments were run on a Bruker MASS-2 instrument with HBS-EP+ as running buffer and sample diluent (Cytiva Life Sciences, #BR100826). HCA sensor chips (Bruker, #1862614) were immobilized with anti-His antibody (His capture kit, Cytiva Life Sciences, #28995056) following manufacturer's instructions. About 10,000 RU of anti-His was obtained. His-tagged hTfR ectodomain (SEQ ID NO: 39), cTfR ectodomain (SEQ ID NO: 40) or mouse TfR ectodomain (SEQ ID NO: 41) (5 μg/ml) was captured for 1 min at 10 μL/min. Concentration series of the humanized Fab variants were then injected for 4 min at 30 μL/min over hTfR surfaces and dissociation was monitored for 5 min. Surface was regenerated with one 1 min pulse of 10 mM glycine-HCl at pH 1.5.
# [3] = molecular target: His-tagged mouse TfR ectodomain (mTFRC_89_764; mature protein) (mouse, UniProt Q62351 89-763); assay: SPR, His-tagged mTfR ectodomain captured on anti-His
# His-tagged mouse TfR ectodomain (mTFRC_89_764; mature protein), sequence (Q62351 other isoform, or with tags, fused parts or gaps): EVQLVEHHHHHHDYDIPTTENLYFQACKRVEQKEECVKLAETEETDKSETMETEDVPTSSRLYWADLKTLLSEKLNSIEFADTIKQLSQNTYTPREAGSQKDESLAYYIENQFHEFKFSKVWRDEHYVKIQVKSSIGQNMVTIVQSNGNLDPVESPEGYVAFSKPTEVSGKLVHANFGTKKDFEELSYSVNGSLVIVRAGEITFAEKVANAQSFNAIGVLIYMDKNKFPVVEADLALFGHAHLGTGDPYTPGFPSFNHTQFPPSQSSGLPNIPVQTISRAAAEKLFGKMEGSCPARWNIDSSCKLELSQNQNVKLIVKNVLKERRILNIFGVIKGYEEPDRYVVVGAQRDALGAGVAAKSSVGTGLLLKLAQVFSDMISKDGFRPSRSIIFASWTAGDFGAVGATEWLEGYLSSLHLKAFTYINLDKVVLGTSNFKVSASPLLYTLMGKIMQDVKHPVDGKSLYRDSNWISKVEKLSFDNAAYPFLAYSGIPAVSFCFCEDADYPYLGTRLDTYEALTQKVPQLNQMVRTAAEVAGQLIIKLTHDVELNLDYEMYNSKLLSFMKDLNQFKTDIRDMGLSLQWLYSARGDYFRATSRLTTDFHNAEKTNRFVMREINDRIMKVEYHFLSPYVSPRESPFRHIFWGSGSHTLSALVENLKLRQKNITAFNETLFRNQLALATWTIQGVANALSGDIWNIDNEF
# Method: as §1
# [4] = molecular target: T2, His-tagged human TfR ectodomain (hTFRC_89-760_G142S; mature protein) (human, UniProt P02786 89-760); assay: SPR, His-tagged TfR ectodomain captured on anti-His, 1:1 fit
# T2 construct: It carries the G142S haplotype; also called hTfR ectodomain
# Method: as §1
# [5] = molecular target: T1, His-tagged cynomolgus monkey TfR …; assay: as above
# Method: as §1
# [6] = molecular target: T2, His-tagged human TfR ectodomain …; assay: as above; remark: listed apart in the source
# Method: as §2
# [7] = molecular target: T1, His-tagged cynomolgus monkey TfR …; assay: as above
# Method: as §2
binder,measurement,setting,value
"531-1L2_mouse mAb (antibody, IgG1, V domains shown, constant regions are not) VH: QVQLQQPGAELVSPGASVKLSCKASDYTFTRYWLNWVKQRPGQGLEWIGMIDPSVSECHYSQMFKDKATLTVDKSSSTAYMLLNSLTSEDSAVYYCSQIRLPYYYAMDSWGQGTSVTVSS VL: DIQMTQTPSSLSASLGDRVTISCRASQDINSFLNWYQQKPDGTVKLLIYYTSRLHSGVPSRFSGSGSGTDYSLTIGNLDQEDIATYFCQQGNTLPRTFGGGTKLELK",Cynomolgus/human KD ratio,[1],3.9
same,Cynomolgus/human KD ratio,[2],3.9
same,binding result,[3],no binding
same,Kd,[4],6.9 nM
same,Kd,[5],27 nM
same,Kd,[6],6.93 nM
same,Kd,[7],27 nM
